Key:
[1] = target: T1, soluble recombinant human vimentin (srhVim), full length, expressed from pET30 in E. coli (human, UniProt P08670 2-466); experiment: ELISA, wells coated with PSGL-1/Fc 10 µg/mL, srhVim added at rising concentrations, detection with anti-His/HRP
T1 construct: also called full length vimentin; full-length Vimentin; not shown: His tag from pET30 (Ni2+ purification, anti-His detection)
Protocol: The observations in these experiments, in certain embodiments, are attributed to srhVim either affecting P-selectin, PSGL-1, or both. ELISA was performed by coating 96-well plates with either PSGL-1/Fc protein (10 μg/mL), P-selectin/Fc protein (10 μg/mL), or BSA (10 μg/mL) and adding various concentrations of srhVim to each well. Detection was through anti-His/HRP antibodies. Increasing amounts of srhVim bound to P-selectin/Fc protein and reached saturation at 20 μg/mL. There was no binding of srhVim to PSGL-1/Fc (FIG. 6B).

[2] = target: T2, recombinant human vimentin (rhVim), expressed from pQE-30 in E. coli M15 (human, UniProt P08670 2-466); experiment: ELISA, wells coated with PSGL-1/Fc 10 µg/mL in DPBS, blocked with 1% BSA, rhVim added at rising concentrations, detection with HRP-conjugated anti-polyhistidine antibody
T2 construct: also called pQE-30-hVim product; not shown: polyhistidine tag from pQE-30 (Ni2+ purification, anti-polyhistidine detection)
Protocol: rhVim binding assay—To determine which proteins to which rhVim binds, we performed enzyme linked immunosorbent assays (ELISA) as we described (Da, et al., 2014). Immunoplate wells were coated overnight at 4° C. with P-selectin/Fc or PSGL-1/Fc (10 μg/ml in DPBS). Wells were washed with DPBS and then blocked with 1% BSA for one hour. After blocking, rhVim was added in increasing concentrations and detected using a HRP-conjugated anti-polyhistidine antibody. Tetramethylbenzidine solution was used as the substrate and the reactions were stopped using 1 N sulfuric acid. All ELISA measurements were performed in duplicate and the data reported were averaged from two separate experiments performed.
The effect of rhVim blocking PMN adhesion to P-selectin could be attributed to rhVim either affecting P-selectin, PSGL-1, or both. Therefore, ELISAs were performed with wells coated either PSGL-1/Fc protein (10 μg/mL) or P-selectin/Fc protein (10 μg/mL) and incubated with increasing concentrations of rhVim to each well. Increasing amounts of rhVim bound to P-selectin/Fc protein and reached saturation at 20 μg/mL. There was no binding of rhVim to PSGL-1/Fc at any concentration (FIG. 15C).

T1 sequence (P08670 2-466): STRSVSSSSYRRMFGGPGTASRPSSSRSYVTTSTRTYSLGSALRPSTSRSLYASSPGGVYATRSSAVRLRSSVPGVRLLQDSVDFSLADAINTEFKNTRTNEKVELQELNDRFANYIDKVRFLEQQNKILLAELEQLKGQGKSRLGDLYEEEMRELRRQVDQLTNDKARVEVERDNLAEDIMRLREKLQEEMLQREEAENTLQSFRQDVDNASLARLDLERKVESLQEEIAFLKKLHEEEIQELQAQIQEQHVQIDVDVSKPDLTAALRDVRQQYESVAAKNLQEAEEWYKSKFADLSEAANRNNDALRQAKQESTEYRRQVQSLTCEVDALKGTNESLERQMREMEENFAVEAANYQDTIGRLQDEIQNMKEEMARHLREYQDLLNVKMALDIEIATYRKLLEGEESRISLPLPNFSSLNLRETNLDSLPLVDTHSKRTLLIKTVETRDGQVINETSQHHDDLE
T2 sequence (P08670 2-466): as above

B1: PSGL-1/Fc protein (Fc fusion, UniProt Q14242 42-295, looked up)
chain: QATEYEYLDYDFLPETEPPEMLRNSTDTTPLTGPGTPESTTVEPAARRSTGLDAGGAVTELTTELANMGNLSTDSAAMEIQTTQPAATEAQTTQPVPTEAQTTPLAATEAQTTRLTATEAQTTPLAATEAQTTPPAATEAQTTQPTGLEAQTTAPAAMEAQTTAPAAMEAQTTPPAAMEAQTTQTTAMEAQTTAPEATEAQTTQPTATEAQTTPLAAMEALSTEPSATEALSMEPTTKRGLFIPFSVSSVTHKG
notes: Bought from R & D Systems; the species is not clearly stated; not shown: Fc part
**Q.** Does B1 bind [1]?
**A.** no binding (tested: 40 µg/mL)

**Q.** Does B1 bind [2]?
**A.** no binding (tested: 40 µg/mL)
